Patent US20190367616A1 (SYMPHOGEN A S, published 2019)
Numbering of substitutions follows the chain as printed. Numbers in names are those of the source. Each block holds one binder with its values, some of them ahead of it.

Tests used:
Experiment in all cases: SPR, antibody on sensor, monomeric PD-1 ECD in solution
[1] = biological target: T1, human PD-1 ECD (Acro Biosystems cat. no. PD1-H52219) (human, UniProt Q15116 25-170)
T1 construct: extracellular domain; Bought monomeric ECD; also called monomeric PD-1 antigen
Method: (§1) The kinetic binding analysis was performed by Surface Plasmon Resonance (SPR) using a Continuous Flow Microspotter (CFM, Wasatch Microfluidics, US) combined with an Ibis MX96 SPR instrument (IBIS Technologies, The Netherlands). Surface Plasmon Resonance imaging analysis was performed on G-a-hu-IgG Fc SensEye® SPR sensors (Ssens BV, The Netherlands). Anti-PD-1 antibodies expressed in IgG₁ LALA format (i.e., having the mutations L234A/L235A) were diluted to 2.5 nM in PBS-T (1×PBS with 0.05% Tween 20, pH 7.4). Antibodies were spotted onto a G-a-hu-IgG Fc SensEye® for 15 minutes using a Continuous Flow Microspotter (CFM, Wasatch Microfluidics, Salt Lake City, US). After spotting, the SensEye® was positioned in the IBIS MX96 biosensor, and antibodies were chemically fixed to the sensor surface using Fix It Kit (Ssens BV, The Netherlands). Kinetic analysis was performed by applying a kinetic titration series (Karlsson et. al., Anal. Biochem. 349(1):136-47 (2006)), where monomeric PD-1 antigen was injected in increasing concentrations from 2 nM to 100 nM without application of surface regeneration steps after each antigen injection. Binding was tested to human PD-1 ECD (Acro Biosystems cat. no. PD1-H52219), mouse PD-1 ECD (Sino Biological. cat. no. 50124-MO8H) and cynomolgus PD-1 ECD (Acro Biosystems cat. no. PD1-05223) in three separate experiments. Antigen association was performed for 15 minutes and antigen dissociation was performed for 60 minutes. The kinetic analysis was performed at 25° C. After completion, the recorded binding responses were fitted to a simple Langmuir 1:1 binding model with Scrubber 2 software for calculation of the on-rate (kₒₙ or kₐ), off-rate (koff or kd) and affinity (KD) constants.

[2] = biological target: T2, cynomolgus PD-1 ECD (Acro Biosystems cat. no. PD1-05223) (cynomolgus, UniProt B0LAJ3 25-170)
T2 construct: Bought monomeric ECD; not shown: any purification tag of the vendor's product (Acro Biosystems PD1-05223, probably a His tag)
Method: as §1

[3] = biological target: T3, mouse PD-1 ECD (Sino Biological cat. no. 50124-MO8H) (mouse, UniProt Q02242 25-169)
T3 construct: extracellular domain; Bought monomeric ECD
T3 sequence (looked up): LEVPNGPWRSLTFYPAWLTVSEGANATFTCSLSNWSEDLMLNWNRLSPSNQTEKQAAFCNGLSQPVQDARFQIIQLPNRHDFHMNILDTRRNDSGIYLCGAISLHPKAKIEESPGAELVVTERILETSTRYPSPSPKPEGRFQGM
Method: as §1

T1 sequence (Q15116 25-170, one chain of several): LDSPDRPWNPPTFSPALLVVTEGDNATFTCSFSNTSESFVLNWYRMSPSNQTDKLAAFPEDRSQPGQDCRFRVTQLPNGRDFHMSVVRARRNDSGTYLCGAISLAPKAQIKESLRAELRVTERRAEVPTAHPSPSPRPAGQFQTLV
T2 sequence (B0LAJ3 entry or part of it limits assumed): as the sequence (Q15116 25-170, one chain of several) above, with D2E, P10A, V19L, T35A, Q75R, T144A counted along it

Kd [1]: 2.3 nM
koff [1]: 0.00023 s⁻¹
kon [1]: 100000 M⁻¹ s⁻¹
Kd [2]: 34 nM
koff [2]: 0.0013 s⁻¹
kon [2]: 39000 M⁻¹ s⁻¹
binding result [3]: no binding (tested: 100 nM)
B1: antibody 18098 (antibody, V domains shown)
VH: QVQLQESGGGLVRPGGSLRLSCAASGFTFSSFAMNWVRQAPGKGLVWVSTITGGGTTSYYADSVKGRFTISRDNSKSTLFLQMNSLRAEDTAVYYCAKWGSWSAGAFDIWGQGTTVTVSS
VL: DIQLTQSPSSVSASVGDRVTITCRASQGISSWLAWYQQKPGKAPKLLIYAASSLQSGVPSRFSGSGSGTDFTLTISSLQPEDFATYYCQQANSFPWTFGQGTKVEIKR
notes: Tested as human IgG1 L234A/L235A (LALA), kappa

Kd [1]: 1.5 nM
koff [1]: 0.00011 s⁻¹
kon [1]: 77000 M⁻¹ s⁻¹
Kd [2]: 6.4 nM
koff [2]: 0.00062 s⁻¹
kon [2]: 97000 M⁻¹ s⁻¹
binding result [3]: no binding (tested: 100 nM)
B3: antibody 18413 (antibody, V domains shown)
VH: EVQLVESGGGLVQPGGSLRLSCAASGFTFSSFVMSWVRQAPGKGLEWLSTISGGGGSTYYADSVKGRFTISRDNSKNTLYLQMNSLRAEDTAVYYCAKDWDLYYFDYWGQGTLVTVSS
VL: B1 VL with S12P, S31N, W96L, Q100G
notes: as for B1

Kd [1]: 1.6 nM
koff [1]: 0.00035 s⁻¹
kon [1]: 230000 M⁻¹ s⁻¹
Kd [2]: 3.7 nM
koff [2]: 0.00087 s⁻¹
kon [2]: 230000 M⁻¹ s⁻¹
Kd [3]: 11 nM
koff [3]: 5e-05 s⁻¹
kon [3]: 4700 M⁻¹ s⁻¹
B8: antibody 18400 (antibody, V domains shown)
VH: QLQLQESGPGLVKPSGTLSLTCAVSGGSISSSNWWSWVRQPPKKGLEWVGEIFHDGTTSYNPSLKSRVTMSVDKSKNQFSLKLSSVTAADTAVYYCARGNWGSGALDIWGPGTMVTVSS
VL: EIVMTQSPSPLSASVGDRVTITCRASQGIRNDLGWYQQKPGKAPKLLIYAASSLQSGVPSRFSGSGSGTDFTLTISSLQPEDFATYYCLQDYNYPRTFGQGTKVEIKR
notes: as for B1

Continued, binder first:

B2: antibody 18325 (antibody, V domains shown)
VH: QVQLQQSGGGLVQPGGSLRLSCAASGFTFSSHVMNWVRQAPGKGLEWVATISGSGVDTYYADSVKGRFTISRGNSKNMLYLQMNSLRAEDTAVYYCAKWGSWSAGAFDIWGQGTMVTVSS
VL: B1 VL with D1E, Q3V
notes: as for B1
Kd [1]: 0.82 nM
koff [1]: 0.00011 s⁻¹
kon [1]: 130000 M⁻¹ s⁻¹
Kd [2]: 4.3 nM
koff [2]: 0.00062 s⁻¹
kon [2]: 140000 M⁻¹ s⁻¹
binding result [3]: no binding (tested: 100 nM)

B4: antibody 18040 (antibody, V domains shown)
VH: QVQLVESGGGLVKPGGSLRLSCAASGFTFSDYYMNWIRQAPGKGLEWVSYISSTGSTIYYADSVKGRFTISRDNAKNSLYLQMDSLRAEDTAVYYCARATNWGSDYWGQGTLVTVSS
VL: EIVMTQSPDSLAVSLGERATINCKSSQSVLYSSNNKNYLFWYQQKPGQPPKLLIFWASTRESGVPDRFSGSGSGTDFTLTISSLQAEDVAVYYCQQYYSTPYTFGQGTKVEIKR
notes: Tested as human IgG1 L234A/L235A (LALA), kappa; The VH/VL entries carry X at variable positions
Kd [1]: 0.41 nM
koff [1]: 0.00011 s⁻¹
kon [1]: 260000 M⁻¹ s⁻¹
Kd [2]: 2.9 nM
koff [2]: 0.00097 s⁻¹
kon [2]: 340000 M⁻¹ s⁻¹
binding result [3]: no binding (tested: 100 nM)

B5: antibody 18113 (antibody, V domains shown)
VH: B4 VH with N35S, T54S, V64A, D84N, A99D, G103A, S104F
VL: DIQLTQSPDSLAVSLGERATINCKSSQSVFYSANNKNYLAWYQQKPGQPPKLLIYWTSTRESGVPDRFRGSGSGTDFTLTISSLQAEDVAVYYCQQFYSTPRTFGQGTKVEIKR
notes: as for B1
Kd [1]: 0.6 nM
koff [1]: 0.0001 s⁻¹
kon [1]: 170000 M⁻¹ s⁻¹
Kd [2]: 5.3 nM
koff [2]: 0.00076 s⁻¹
kon [2]: 140000 M⁻¹ s⁻¹
binding result [3]: no binding (tested: 100 nM)

B6: antibody 18483 (antibody, V domains shown)
VH: QVQLQQSGGGLVQPGGSLRLSCAASGFTFSDYWMNWVRQAPGKGLEWVANIKEDGNEKYYVDSVKGRFTISRDNAKNSLYLQMNSLRAEDTAVYYCARDTNWGSDYWGQGTLVTVSS
VL: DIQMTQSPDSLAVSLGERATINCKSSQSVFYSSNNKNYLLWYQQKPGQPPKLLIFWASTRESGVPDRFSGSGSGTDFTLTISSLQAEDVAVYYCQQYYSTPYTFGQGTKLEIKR
notes: as for B1
Kd [1]: 0.29 nM
koff [1]: 0.00017 s⁻¹
kon [1]: 580000 M⁻¹ s⁻¹
Kd [2]: 3.1 nM
koff [2]: 0.0008 s⁻¹
kon [2]: 260000 M⁻¹ s⁻¹
binding result [3]: no binding (tested: 100 nM)

B7: antibody 18049 (antibody, V domains shown)
VH: QVQLVESGGGVVQPGRSLRLSCAASGFTFSNYGMHWVRQAPGKGLEWVAVIWYDGSDKYYADSVKGRFTISRDNSKNTLYLQMNSLRAEDTAVYYCAGGGNYYGDFWGQGTLVTVSS
VL: B8 VL with P10S, L46R, A50V, S53N, D70E, D91Y, Y92N, N93S, R96W
notes: as for B1
Kd [1]: 1.8 nM
koff [1]: 6e-05 s⁻¹
kon [1]: 34000 M⁻¹ s⁻¹
Kd [2]: 2.1 nM
koff [2]: 8e-05 s⁻¹
kon [2]: 38000 M⁻¹ s⁻¹
binding result [3]: no binding (tested: 100 nM)
